Results reported in US8148141B2, “Peptide-immobilized substrate and method for measuring target protein” (HiPep Laboratories, priority 2001, dated 2012).
Ends that are not written are not given here. Rf = not defined here

Experiments:
calmodulin = calmodulin (Homo sapiens, UniProt P0DP23); experiment: calmodulin measurement with immobilized fluorescent-labeled α-helix peptide chip; type: binding; conditions: carboxyfluorescein peptide; exciting 490 nm, detection 520 nm; in the presence of calmodulin; 25° C., 5 minutes
Procedure: As schematically shown in FIG. 3, calmodulin was measured using a peptide chip in which peptides having α-helix structure, each of which both termini were labeled with different fluorescent labels, were immobilized on a substrate. The procedures were carried out as follows:
The sequence of the core region of the peptides, which forms α-helix structure was designed by molecular modeling using a computer (molecular modeling using Insight II/Discover, Molecular Simulation, U.S.) based on the amino acid sequence of the peptide described in a reference (K. T. O'Neil and W. F. DeGrado, Trend Biochem Sci, 15, 59-64 (1990)). As a result, the amino acid sequence Leu-Lys-Lys-Leu-Leu-Lys-Leu-Leu-Lys-Lys-Leu-Leu-Lys-Leu (SEQ ID NO:1) was employed as the amino acid sequence of the core region. […]

amylase = amylase measurement with immobilized fluorescent-labeled β-loop peptide chip; type: binding; conditions: carboxyfluorescein group; exciting 490 nm, detection 520 nm; amylase 1.0 μM, Tris buffer pH7.4, 150 mM NaCl; 25° C., 5 minutes
Procedure: As schematically shown in FIG. 4, amylase was measured using a peptide chip in which a peptide whose one terminus was labeled with a fluorescent label, which peptide has β-loop structure, was immobilized on a substrate. The procedures were carried out as follows:
As in Example 1, as schematically shown in FIG. 4, a peptide which forms β-loop structure was designed by molecular modeling using a computer based on the amino acid sequence of the peptide described in a reference (F. J. Blanco et al., Eur J Biochem 200, 345-351 (1991), S. Ono et al, Biosci Biotechnol Biochem, 62, 1621-1623 (1998)). As a result, as the amino acid sequence of the core region, the sequence Tyr-Gln-Ser-Trp-Arg-Tyr-Ser-Gln-Ala (SEQ ID NO: 5) was employed. The peptide having this sequence to which Cys residue as an anchor for immobilization was added to one terminus, and to which Lys residue having a fluorescent group Rf (fluorescent group such as carboxyfluorescein in FIG. 4) was added to another terminus, was synthesized. […] When carboxyfluorescein group was used, fluorescence measurement was performed employing exciting wavelength of 490 nm and detection wavelength of 520 nm. By adding an amylase solution (Tris buffer pH7.4, 150 mM NaCl, amylase concentration: 1.0 μM), about ten times increase of the fluorescence intensity was measured, so that the amylase was able to be detected and quantified. […]

Substance | increase of the fluorescence intensity (calmodulin) | increase of the fluorescence intensity (amylase)
Lys(Rf3)-Leu-Lys-Lys-Leu-Leu-Lys-Leu-Leu-Lys-Lys-Leu-Leu-Lys-Leu-Cys-NH2 (K(carboxyfluorescein)LKKLLKLLKKLLKLC-NH2) [peptide containing carboxylfluorescein, Rf3 carboxyfluorescein group] | about ten | 
Lys(Rf)-Tyr-Gln-Ser-Trp-Arg-Tyr-Ser-Gln-Ala-Cys-NH2 (K(Rf)YQSWRYSQAC-NH2; reading uncertain; also: printed as Lys(Rf)-Tyr-Gln-Ser-Trp-Arg-Tyr-Ser-Gln-Ala-Cys-NH2) [SEQ ID NO: 6, Rf fluorescent group such as carboxyfluorescein] |  | about ten
